The assay concerns the target sdcb1_human SDCBP (UniProt O00560).
Chain of UniProt O00560 (O00560 whole entry): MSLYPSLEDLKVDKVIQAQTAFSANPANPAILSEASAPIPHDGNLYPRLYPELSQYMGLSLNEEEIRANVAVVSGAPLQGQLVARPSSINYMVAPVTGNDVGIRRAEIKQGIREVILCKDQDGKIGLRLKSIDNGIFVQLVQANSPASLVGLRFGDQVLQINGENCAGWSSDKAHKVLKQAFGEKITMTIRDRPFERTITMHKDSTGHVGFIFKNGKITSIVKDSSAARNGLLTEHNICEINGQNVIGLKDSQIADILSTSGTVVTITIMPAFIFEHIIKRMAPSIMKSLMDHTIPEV
As to “Frizzled-7 (Homo sapiens) (from UniProt O75084) T572A”, the “effect of a mutation on the interaction” value is “disrupting interaction”. Under “Frizzled-7 (Homo sapiens) (from UniProt O75084) T572A;V574A” stands “disrupting interaction”.

Take “Frizzled-7 (Homo sapiens) (from UniProt O75084) V574A”: the “effect of a mutation on the interaction” value was “decreasing interaction”.

The values above are taken from IntAct's records for PubMed 18256285.
